For one substance, induction ratio of a Gluc reporter driven by Gal4 binding sites, HEK293 cells, furimazine alone 0-25 uM, maximum results are on record in paper PMC7840992.

The target in the assay is luminGAVPO (luminescent GAVPO), Nluc-GAVPO fusion with NG configuration.

Take “luminGAVPO (luminescent GAVPO), Nluc-GAVPO fusion with NG configuration”: the induction ratio of a Gluc reporter driven by Gal4 binding sites, HEK293 cells, furimazine alone 0-25 uM, maximum at 2.5 uM was found to be 116 fold.
